The values below come from patent US20230272016A1, “PEPTIDES FOR IMMUNOTHERAPY” (Second Genome, Inc., priority 2020, published 2023).

Test [1] concerns the target Bone marrow stromal antigen 2 (Homo sapiens, UniProt Q10589). As to the kind of experiment: Pull-down and mass spectrometry target capture. Type of test: binding. Also on record: endogenous in cells. Conditions: 100.0 = no target protein observed in the control pulldown. The procedure:
(§1) To identify binding partners of SG-3-0020 in human cells, pull-down and mass spectrometry analysis were used (FIG. 15). Multiple target capture experiments were performed with SG-3-0020 and controls. Binding conditions and cross-linkers were varied to achieve maximum enrichment of peptide over controls. Nine putative binding partners to SG-3-0020 were identified using MS and were nominated for confirmation using CRISPR Knock Out (KO) Experiments (Table 12, FIG. 16). The enrichment ratio was calculated as described below: […]

Test [2] has as its target Cation-independent mannose-6-phosphate receptor (Homo sapiens, UniProt P11717). As to the kind of experiment: Pull-down and mass spectrometry target capture. It counts as binding. Also on record: endogenous in cells. Conditions: 100.0 = no target protein observed in the control pulldown. Here is the method: as §1
The target in a further test is Teneurin-3 (Homo sapiens, UniProt Q9P273). Kind of test: Pull-down and mass spectrometry target capture. Type of test: binding. Conditions: 100.0 = no target protein observed in the control pulldown. Further details: endogenous in cells. The procedure: as §1
The target of another test is Tumor necrosis factor (Homo sapiens, UniProt P01375). As to the kind of experiment: Pull-down and mass spectrometry target capture. Particulars: 100.0 = no target protein observed in the control pulldown. Type of test: binding. Also on record: endogenous in cells. The procedure: as §1
For test [3], the target named is Low-density lipoprotein receptor (Homo sapiens, UniProt P01130). As to the kind of experiment: Pull-down and mass spectrometry target capture. Also on record: endogenous in cells. Type of test: binding. Particulars: 100.0 = no target protein observed in the control pulldown. The procedure:
as §1

In test [4] the test system is naïve CD4+ and CD8+ T cells (Th0). Particulars: incubation of a naïve T cell with the polypeptide; cited from earlier work.
The target in test [5] is T1, CD2 (cluster of differentiation 2) (Homo sapiens, UniProt P06729).
T1 construct: endogenous in cells
T1 sequence (P06729 25-351): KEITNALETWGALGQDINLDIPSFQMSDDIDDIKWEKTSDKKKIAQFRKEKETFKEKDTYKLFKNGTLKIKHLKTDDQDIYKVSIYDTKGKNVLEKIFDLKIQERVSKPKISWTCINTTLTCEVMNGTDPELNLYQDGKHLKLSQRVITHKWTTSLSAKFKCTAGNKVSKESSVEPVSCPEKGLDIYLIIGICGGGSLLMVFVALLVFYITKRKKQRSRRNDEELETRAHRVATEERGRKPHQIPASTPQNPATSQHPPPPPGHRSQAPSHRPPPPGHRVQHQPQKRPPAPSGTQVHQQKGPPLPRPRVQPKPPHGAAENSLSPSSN
As to the kind of experiment: Pull-down and mass spectrometry target capture. It counts as binding. Particulars: 100.0 = no target protein observed in the control pulldown. Here is the method: as §1

The next test concerns the target T2, Prohibitin (Homo sapiens, UniProt P35232).
T2 construct: endogenous in cells
T2 sequence (P35232 1-272): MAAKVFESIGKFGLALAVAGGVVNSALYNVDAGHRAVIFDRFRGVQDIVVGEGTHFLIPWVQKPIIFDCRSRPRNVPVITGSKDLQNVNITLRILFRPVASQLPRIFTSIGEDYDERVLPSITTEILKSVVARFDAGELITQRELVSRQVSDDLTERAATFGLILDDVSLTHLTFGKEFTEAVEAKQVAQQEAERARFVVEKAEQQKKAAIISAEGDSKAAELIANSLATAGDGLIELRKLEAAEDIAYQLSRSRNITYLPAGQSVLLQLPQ
As to the kind of experiment: Pull-down and mass spectrometry target capture. It counts as binding. Conditions: 100.0 = no target protein observed in the control pulldown. The procedure:
as §1

For test [6], the target named is T3, Tumor necrosis factor receptor superfamily member 4 (Homo sapiens, UniProt P43489).
T3 construct: endogenous in cells
T3 sequence (P43489 29-277): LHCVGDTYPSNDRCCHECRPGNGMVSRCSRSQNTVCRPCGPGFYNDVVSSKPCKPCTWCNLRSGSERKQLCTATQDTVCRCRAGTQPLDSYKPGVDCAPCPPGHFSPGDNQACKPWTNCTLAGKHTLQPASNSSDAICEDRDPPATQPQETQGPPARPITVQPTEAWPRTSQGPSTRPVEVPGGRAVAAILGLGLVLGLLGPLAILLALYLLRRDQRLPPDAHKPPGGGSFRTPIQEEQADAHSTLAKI
Kind of test: Pull-down and mass spectrometry target capture. Particulars: 100.0 = no target protein observed in the control pulldown. It counts as binding. Here is the method:
as §1

For another test, the system named is Protein AMBP. Kind of test: Pull-down and mass spectrometry target capture. It counts as binding, human. Conditions: 100.0 = no target protein observed in the control pulldown. Here is the method:
as §1

Test [7] has as its system primary human unstimulated T cells. Kind of test: CRISPR knock-out target validation in T cells stimulated with anti-CD3 and peptide. It counts as cell-based. Particulars: targets identified from mass spectrometry. Here is the method:
Functional validation was performed by CRISPR knock-out to confirm target effects on SG-3-0020-mediated activity. […] RNPs were introduced into primary human unstimulated T cells via Nucleofection and cells were cultured for 96 hours. OR1A1 served as negative control and CD3E was used as positive control. Post knock-down T cells were stimulated in vitro culture of Purified T cells with anti-CD3 (0.1 μg/mL) and SG-3-05429 (mutant SG-3-0020 with improved activity) (10 μM) and was incubated for 48 hours. A decrease in IFN-γ secretion (FIG. 17A) and a decrease in activated CD4 and CD8 T cell subsets was also observed (CD25+, PD-1+=Markers of T cell activation) (FIG. 17B) was observed after target knock-down compared to the negative control (OR1A1). […] Activation of CD2 has the potential to be a therapeutic opportunity.

Cation-independent mannose-6-phosphate receptor, sequence (P11717 41-2491): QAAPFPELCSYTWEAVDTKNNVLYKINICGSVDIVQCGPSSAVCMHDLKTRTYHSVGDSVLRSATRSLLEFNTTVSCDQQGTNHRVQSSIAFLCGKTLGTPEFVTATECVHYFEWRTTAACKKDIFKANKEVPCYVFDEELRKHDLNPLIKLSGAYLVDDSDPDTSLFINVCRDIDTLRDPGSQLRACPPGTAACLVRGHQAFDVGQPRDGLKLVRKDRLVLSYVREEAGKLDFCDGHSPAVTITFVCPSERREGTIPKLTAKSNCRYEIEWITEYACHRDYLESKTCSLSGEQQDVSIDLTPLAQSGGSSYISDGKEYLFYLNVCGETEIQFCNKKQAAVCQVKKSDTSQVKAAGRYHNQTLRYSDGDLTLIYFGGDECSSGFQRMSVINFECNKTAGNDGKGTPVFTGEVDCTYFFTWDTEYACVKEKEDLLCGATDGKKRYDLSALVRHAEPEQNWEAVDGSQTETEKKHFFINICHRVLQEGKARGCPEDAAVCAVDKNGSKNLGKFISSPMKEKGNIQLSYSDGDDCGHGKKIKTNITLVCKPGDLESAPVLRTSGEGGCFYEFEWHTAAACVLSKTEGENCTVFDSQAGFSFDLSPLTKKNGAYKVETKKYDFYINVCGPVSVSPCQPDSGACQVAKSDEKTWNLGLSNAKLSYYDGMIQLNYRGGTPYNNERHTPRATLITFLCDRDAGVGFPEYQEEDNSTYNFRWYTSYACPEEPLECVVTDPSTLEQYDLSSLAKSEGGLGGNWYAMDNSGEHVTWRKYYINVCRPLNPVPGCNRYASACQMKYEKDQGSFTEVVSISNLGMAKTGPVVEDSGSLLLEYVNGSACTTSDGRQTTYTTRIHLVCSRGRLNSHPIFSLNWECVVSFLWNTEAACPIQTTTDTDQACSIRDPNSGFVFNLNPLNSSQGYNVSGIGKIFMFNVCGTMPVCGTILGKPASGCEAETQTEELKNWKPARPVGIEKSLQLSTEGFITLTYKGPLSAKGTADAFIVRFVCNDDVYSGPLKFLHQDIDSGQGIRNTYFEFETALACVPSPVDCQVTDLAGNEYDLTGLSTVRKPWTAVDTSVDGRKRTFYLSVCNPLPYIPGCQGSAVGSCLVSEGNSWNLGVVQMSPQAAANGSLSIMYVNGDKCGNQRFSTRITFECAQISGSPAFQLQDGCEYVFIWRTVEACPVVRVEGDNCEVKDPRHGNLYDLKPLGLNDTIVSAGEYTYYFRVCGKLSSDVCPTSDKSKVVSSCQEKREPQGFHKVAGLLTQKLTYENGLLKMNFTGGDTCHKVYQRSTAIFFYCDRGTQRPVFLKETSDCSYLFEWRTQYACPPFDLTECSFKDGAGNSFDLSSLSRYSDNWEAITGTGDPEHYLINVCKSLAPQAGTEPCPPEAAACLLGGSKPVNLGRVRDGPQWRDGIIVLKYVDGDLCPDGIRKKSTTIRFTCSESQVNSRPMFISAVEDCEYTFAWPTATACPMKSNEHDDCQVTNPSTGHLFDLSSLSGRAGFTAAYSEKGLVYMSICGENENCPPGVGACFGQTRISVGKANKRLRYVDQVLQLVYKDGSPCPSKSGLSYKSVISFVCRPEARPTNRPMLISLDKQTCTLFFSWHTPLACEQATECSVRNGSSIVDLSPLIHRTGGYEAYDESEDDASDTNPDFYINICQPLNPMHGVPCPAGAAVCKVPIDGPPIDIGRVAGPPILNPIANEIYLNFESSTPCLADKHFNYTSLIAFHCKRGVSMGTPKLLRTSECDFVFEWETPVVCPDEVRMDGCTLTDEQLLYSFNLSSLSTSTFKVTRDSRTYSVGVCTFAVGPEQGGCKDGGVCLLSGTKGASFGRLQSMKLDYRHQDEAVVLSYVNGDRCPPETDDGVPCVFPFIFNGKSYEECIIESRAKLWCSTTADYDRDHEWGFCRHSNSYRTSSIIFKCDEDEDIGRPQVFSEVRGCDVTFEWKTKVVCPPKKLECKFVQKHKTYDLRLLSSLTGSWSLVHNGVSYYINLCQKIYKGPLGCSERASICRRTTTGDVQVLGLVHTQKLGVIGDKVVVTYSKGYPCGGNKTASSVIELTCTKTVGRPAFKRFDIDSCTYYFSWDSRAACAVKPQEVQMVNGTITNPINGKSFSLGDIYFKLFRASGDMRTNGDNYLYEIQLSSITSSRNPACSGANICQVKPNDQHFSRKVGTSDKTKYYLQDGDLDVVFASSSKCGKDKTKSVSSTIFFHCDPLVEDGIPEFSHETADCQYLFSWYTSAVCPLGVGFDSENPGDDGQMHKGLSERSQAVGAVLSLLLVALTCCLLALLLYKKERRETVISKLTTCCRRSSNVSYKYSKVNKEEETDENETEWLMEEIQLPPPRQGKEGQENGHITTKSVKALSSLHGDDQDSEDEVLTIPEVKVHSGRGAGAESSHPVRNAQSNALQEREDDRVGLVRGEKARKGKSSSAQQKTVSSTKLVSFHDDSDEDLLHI
Low-density lipoprotein receptor, sequence (P01130 22-860): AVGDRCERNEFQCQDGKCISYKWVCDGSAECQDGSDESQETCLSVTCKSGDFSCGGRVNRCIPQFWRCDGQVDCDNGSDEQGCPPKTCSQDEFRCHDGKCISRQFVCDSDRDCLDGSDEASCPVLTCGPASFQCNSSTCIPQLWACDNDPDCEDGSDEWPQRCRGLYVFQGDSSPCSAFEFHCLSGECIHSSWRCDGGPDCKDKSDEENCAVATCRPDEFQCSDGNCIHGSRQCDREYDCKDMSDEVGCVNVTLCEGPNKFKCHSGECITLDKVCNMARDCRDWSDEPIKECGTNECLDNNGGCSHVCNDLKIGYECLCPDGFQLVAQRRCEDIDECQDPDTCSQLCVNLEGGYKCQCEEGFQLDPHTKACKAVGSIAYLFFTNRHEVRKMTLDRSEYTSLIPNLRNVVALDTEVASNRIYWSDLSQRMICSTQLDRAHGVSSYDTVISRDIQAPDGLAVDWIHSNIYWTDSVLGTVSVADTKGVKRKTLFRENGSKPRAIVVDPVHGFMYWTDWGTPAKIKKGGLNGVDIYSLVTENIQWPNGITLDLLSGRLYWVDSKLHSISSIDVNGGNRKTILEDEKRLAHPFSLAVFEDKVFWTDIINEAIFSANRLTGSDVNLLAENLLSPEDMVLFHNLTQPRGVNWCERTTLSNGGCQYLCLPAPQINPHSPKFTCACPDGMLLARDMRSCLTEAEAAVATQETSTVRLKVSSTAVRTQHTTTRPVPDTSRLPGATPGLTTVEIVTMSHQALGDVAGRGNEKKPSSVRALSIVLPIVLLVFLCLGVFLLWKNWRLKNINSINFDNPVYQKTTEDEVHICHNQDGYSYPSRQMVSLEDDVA
Bone marrow stromal antigen 2, sequence (Q10589 1-161 limits assumed): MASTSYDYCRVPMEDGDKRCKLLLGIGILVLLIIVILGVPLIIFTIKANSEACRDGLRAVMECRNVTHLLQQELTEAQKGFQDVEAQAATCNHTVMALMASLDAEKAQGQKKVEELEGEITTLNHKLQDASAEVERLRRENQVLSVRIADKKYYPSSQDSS
Tumor necrosis factor, sequence (P01375 whole entry): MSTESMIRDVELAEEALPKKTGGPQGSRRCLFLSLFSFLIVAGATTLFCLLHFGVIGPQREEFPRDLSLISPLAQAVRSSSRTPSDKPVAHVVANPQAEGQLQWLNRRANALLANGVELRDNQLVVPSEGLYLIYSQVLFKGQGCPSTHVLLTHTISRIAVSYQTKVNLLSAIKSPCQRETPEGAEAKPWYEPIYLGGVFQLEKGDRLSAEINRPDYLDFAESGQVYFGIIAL

In the case of “MLSTKKTKTHDHYPCGRMRDPGWHDWRACLTHQGIEEDEWPV [SG-3-0020, Bifidobacterium polypeptide]”, the Enrichment ratio in test [1] came to 34.5; in test [2], 2.1; with Teneurin-3 it was 3.4; with Tumor necrosis factor, 67.2; in [3], 100.0; in test [5], 1.9. The Enrichment ratio with Prohibitin stood at 1.9; in test [6], 100.0; in the test on Protein AMBP, 69.1. Besides, the “number of CD4+ and/or CD8+ T cells having a CD25+/FoxP3− phenotype” value in test [4] is reported as “increase”. In addition, in test [7], the “human targets confirmed via CRISPR KO experiments” value was “CD2, BST2, and TNF”.
